Results reported in PMC5788503, “Hepatitis B virus core protein allosteric modulators can distort and disrupt intact capsids” (eLife, 2018).

Molecular target: the molecule itself
Assay: negative stain electron microscopy; Cp149 assembly reaction, 50 mM HEPES, 300 mM NaCl, 10 uM dimer, no CpAM

B1: Hepatitis B virus core protein assembly domain, Cp149 (domain or fragment)
chain: MDIDPYKEFGATVELLSFLPSDFFPSVRDLLDTAAALYRDALESPEHCSPHHTALRQAILCWGDLMTLATWVGTNLEDPASRDLVVSYVNTNVGLKFRQLLWFHISCLTFGRETVLEYLVSFGVWIRTPPAYRPPNAPILSTLPETTVV
notes: Hepatitis B virus subtype adyw core protein (Cp), assembly domain: the first 149 residues of the 183-residue protein; Purified as a homodimer; Dimers were assembled into capsids at 10 uM dimer in 300 mM NaCl, 50 mM HEPES pH 7.5; The apo capsid comparator PDB 1QGT is cited without its construct being named; also called purified dimeric assembly domain; apo-capsids; source: E. coli, purified by …
binding result: binds
